Publication PMC8938308 (Human genetics, 2021)

Target: sodium/potassium-transporting ATPase ATP1A3, F309S mutant, V5-tagged (human, UniProt P13637-3 1-1026, F309S)
Experiment: co-IP

reduction of the interaction against WT ATP1A3: ~50%
B1: TOMM22, GFP-tagged (natural protein, UniProt Q9NS69 1-142, looked up)
chain: MAAAVAAAGAGEPQSPDELLPKGDAEKPEEELEEDDDEELDETLSERLWGLTEMFPERVRSAAGATFDLSLFVAQKMYRFSRAALWIGTTSFMILVLPVVFETEKLQMEQQQQLQQRQILLGPNTGLSGGMPGALPSLPGKI
